Drawing on the supplement of paper PMC12042874, this text covers amyloid nucleation score for 140 substances.

This data set can be described thus: amyloid nucleation score (Sup35N fusion, yeast selection) (log enrichment); library NNK2; higher = more nucleation; inactive = no reads after selection. Put shortly:
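Peptides of 20 random codons fused to Sup35N were expressed in psi-negative yeast, induced 24 hours with 100 μM copper sulfate, then grown 7 days at 30°C on medium lacking adenine and uracil. Input and output plasmid inserts were Illumina-sequenced. Nucleation score is the DiMSum log enrichment of output over input reads, centred on the mode score of non-aggregating sequences, excluding sequences with under 100 input reads. Random libraries had three technical output replicates.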

± gives the uncertainty stated by the source.

Consider CNEDFLSQLVVLHFKEYGDN, for which the amyloid nucleation score result was “inactive”.

In turn, DMYWCIYDRFMSLSWKT registered an amyloid nucleation score of -0.597 ± 0.53.

On to TGQSHFSWQYLRTAAVYSRR, for which the amyloid nucleation score was 0.569 ± 0.27.

In the case of RSTNTRIIKLTKCAGPNRDE, the amyloid nucleation score was 1.14 ± 0.17.

YSVTLGGWIREQSLQLSTSS had an amyloid nucleation score of 0.768 ± 0.46.

On to TYLSVGMNLLVGSPFNYNDL, for which the amyloid nucleation score entry is “inactive”.

With ARVIECLHGRN, the amyloid nucleation score is -0.147 ± 0.44.

The substance STILTSVFMFWVCGCFNNKT had an amyloid nucleation score of 7.03 ± 0.078.

On to TMGGSGDGRY, for which the amyloid nucleation score result was “inactive”.

For the substance VMLNWDMGDFRA, the amyloid nucleation score entry is “inactive”.

Regarding SRLKIFIPNVFL, the amyloid nucleation score was -0.067 ± 1.1.

As for LCASHIYL, the amyloid nucleation score was determined as 0.087 ± 0.79.

Consider AVIDIIKRTSCTCDESCCIL, for which the amyloid nucleation score amounted to 0.503 ± 0.31.

ILRVSGDAERSILFCPCLAI: the amyloid nucleation score is -0.255 ± 0.25.

The substance DFKDEGYQRRV yielded an amyloid nucleation score of -0.37 ± 0.65.

ELVRDGYTPFLFLILETVVM: the amyloid nucleation score was -0.202 ± 0.49.

Substance FQCDVSCSVYKSWEMFQGIT came in with an amyloid nucleation score of 0.164 ± 0.8.

As for CTIRLECLLA, the amyloid nucleation score was -0.428 ± 0.46.

Substance TVMTFEYSEHVFRDMDT showed an amyloid nucleation score of -0.501 ± 1.

With YHGVLSFLII, the amyloid nucleation score amounted to 1.29 ± 0.36.

As to KRYTHRCKPFTLHHLPVDAR, the amyloid nucleation score came out at 1.25 ± 0.33.

Substance VQDYKSVRYVGNSRIRVGGS returned an amyloid nucleation score of -0.392 ± 0.79.

TMILKWESRCERGPGEVRLV returned an amyloid nucleation score of 6.204 ± 0.052.

As for TFMTAMVVWSVSLGYPLLRR, the amyloid nucleation score was determined as 1.24 ± 0.23.

IVFSDLTITF had an amyloid nucleation score of 3.29 ± 0.11.

Substance SYFLGFVRYAVILSGMLLST yielded an amyloid nucleation score of -0.281 ± 0.56.

Turning to QVTSCGSWWSRSIWYEVVFS, the amyloid nucleation score was -0.622 ± 1.1.

Substance RKCSGNAMRSLCSDPVRCVK yielded an amyloid nucleation score of 0.669 ± 0.32.

As to ESASTVTVCLRRVKVSHR, the amyloid nucleation score came to 5.204 ± 0.045.

For VPGDDPSIVTVMQMYGFSLI, the amyloid nucleation score is -0.385 ± 0.64.

FWGIMNSILTETLL had an amyloid nucleation score of -1.53 ± 1.1.

As to FYNIRPETVAKAMKGLGWST, the amyloid nucleation score is -0.136 ± 0.37.

The substance LVSYQVFSWSEPENSV came in with an amyloid nucleation score of -0.239 ± 0.79.

In turn, GMRVMVLFDFLYYRCLENLL displayed an amyloid nucleation score of -0.632 ± 1.1.

Consider PGILDNRLGKQGAGLDLRWH, for which the amyloid nucleation score turned out to be 1.17 ± 0.24.

FFFLTHGWEPTVMKEIKSAM: the amyloid nucleation score entry was “inactive”.

Consider LYTSSATHLIRP, for which the amyloid nucleation score entry was “inactive”.

Consider CHRAKTVVGNRVNRGDWDNP, for which the amyloid nucleation score was -0.434 ± 0.76.

RSAWYTG: the amyloid nucleation score was -0.203 ± 0.5.

As to TRNNLSVERQKVRAMSCEKC, the amyloid nucleation score is -0.038 ± 1.1.

In turn, HAFRDIMYTVTRSWAKRWFY showed an amyloid nucleation score of 1.56 ± 0.11.

On to YISIPDVCLLHSIPQSRASI, for which the amyloid nucleation score entry was “inactive”.

On to SISIACCA, for which the amyloid nucleation score amounted to 6.991 ± 0.031.

For MRYYWMWHKVVM, the amyloid nucleation score turned out to be 0.069 ± 0.29.

Turning to PWNMACFS, the amyloid nucleation score entry was “inactive”.

On to HLLIRGVMSTKNRCSLLVIG, for which the amyloid nucleation score is -0.582 ± 0.44.

In turn, PSGNQELLGTMTWIRKVTQS displayed an amyloid nucleation score of -0.86 ± 0.34.

As to DSTVRPMRGGECNAGVAGKE, the amyloid nucleation score came out at 0.794 ± 0.24.

In turn, RDWRANGSCHESSSGLDM yielded an amyloid nucleation score of 1.6 ± 0.34.

As to VSWLDYHVSPSRCRGTLNPC, the amyloid nucleation score amounted to 0.463 ± 0.38.

With IFDQVNSRYRYAVGYGKW, the amyloid nucleation score entry was “inactive”.

In turn, YLYSAQNIRGRWLFCSMKCD displayed an amyloid nucleation score of -1.03 ± 0.62.

SLLFVNNWFSVCRKASCIGN displayed an amyloid nucleation score of 7.787 ± 0.052.

PWDVGRRR gave an amyloid nucleation score of 0.97 ± 0.55.

Substance EELSIQRALLVCPKKEGFLE had an amyloid nucleation score of 3.69 ± 0.082.

On to TSVFFQGIALP, for which the amyloid nucleation score worked out at 8.228 ± 0.029.

On to TIVLGSPANHHTLKCKERGK, for which the amyloid nucleation score was determined as 0.197 ± 0.56.

Take RPVWDNWLTGFLGMPMWGKT: the amyloid nucleation score was 0.112 ± 0.43.

GQTLTRRKVKGRQRELTSGQ showed an amyloid nucleation score of 0.967 ± 0.36.

In turn, MFILGVRPMISKSHNVPTQR had an amyloid nucleation score of -0.171 ± 0.42.

In turn, FFGTMV registered an amyloid nucleation score of -0.19 ± 0.37.

In the case of YNRNRCEVWRLFCLFCLLCF, the amyloid nucleation score amounted to 2 ± 0.089.

As for RLVRVGYLGRKTQRRSCQKL, the amyloid nucleation score turned out to be 0.686 ± 0.2.

DRAGLATLNSLELGDDGFLG displayed an amyloid nucleation score of -1 ± 0.78.

Take FLVMGLRYS: the amyloid nucleation score worked out at 5.407 ± 0.052.

For the substance SRSVLSNSDTPTNNAVNCVA, the amyloid nucleation score was -0.027 ± 0.56.

CLQCQLIRRGLTKMNMGFAS registered an amyloid nucleation score of -0.023 ± 0.45.

As for MSSNYWY, the amyloid nucleation score is -0.916 ± 1.1.

Take KTRLPGVL: the amyloid nucleation score result is “inactive”.

Substance HMSTVLLAVAFIALNFPSVE yielded an amyloid nucleation score of -0.373 ± 1.

The substance RQLHLVLNRVGWMLWYTH displayed an amyloid nucleation score of 0.684 ± 0.26.

In the case of SSWLRINRIYLYEQL, the amyloid nucleation score was -0.305 ± 1.

Take VSRMLSVMSMTTRMFLPYTS: the amyloid nucleation score was found to be 0.152 ± 0.61.

The substance VSQARVLCFMNFGRFLTLNE returned an amyloid nucleation score of 5.51 ± 0.09.

With PFTSYML, the amyloid nucleation score turned out to be 5.63 ± 0.065.

VWQVERVTIFLGFVKNLGLV gave an amyloid nucleation score of 2.68 ± 0.084.

As for LHPLVSLVVHTFMPEVRLVL, the amyloid nucleation score entry is “inactive”.

YCCCVSMFVRTLIARDYNLN registered an amyloid nucleation score of 8.154 ± 0.078.

The substance FIAYRFWFWKGVSASKEHGQ displayed an amyloid nucleation score of 0.433 ± 0.62.

As to RYVLSMFQLLLTYVQL, the amyloid nucleation score was 0.561 ± 0.23.

FLAGVSVFWSYCDSTNLSNQ displayed an amyloid nucleation score of -0.111 ± 0.29.

Take RFLAN: the amyloid nucleation score result was “inactive”.

On to LNIIMGSSDFCPESFYKFW, for which the amyloid nucleation score turned out to be 0.266 ± 1.

In turn, SPGRLFATEFVVVYVKYHSP came in with an amyloid nucleation score of -0.121 ± 0.37.

Turning to CLDNNKNYLDSRCGIRCY, the amyloid nucleation score entry is “inactive”.

For RYSNMLN, the amyloid nucleation score is 3.83 ± 0.096.

In the case of YSHAGEASWDYVSLWFSSRK, the amyloid nucleation score came out at 0.49 ± 0.46.

For the substance AAPVMH, the amyloid nucleation score is -0.354 ± 0.76.

As for SYKMGEFTTFSLSRICK, the amyloid nucleation score is 1.12 ± 0.27.

Consider PDFKNLSYWLSVDTMPSRWV, for which the amyloid nucleation score result is “inactive”.

Substance HRTGWKIFVSW displayed an amyloid nucleation score of 0.732 ± 0.17.

For the substance GGTSAAS, the amyloid nucleation score is 1.01 ± 0.22.

DIWKTQ came in with an amyloid nucleation score of 0.218 ± 0.8.

As to RNCTRFPWSIM, the amyloid nucleation score turned out to be 0.131 ± 1.

As for GTLWLGDAGRAEN, the amyloid nucleation score amounted to 0.589 ± 0.39.

WQENFSHCNLSMLCEVNLSK showed an amyloid nucleation score of -0.44 ± 0.49.

In turn, VQATGADVFWDW displayed an amyloid nucleation score of -0.199 ± 0.76.

With YVIVTDFYYNMVRVVFVRMA, the amyloid nucleation score came out at 0.228 ± 1.

MCMLDRRYQTVMSKVWPNLT: the amyloid nucleation score stood at 0.224 ± 0.33.

As for MWESQGHSLAV, the amyloid nucleation score entry was “inactive”.

In the case of LLWCIERG, the amyloid nucleation score was found to be 0.946 ± 0.51.

In turn, IIHTWLWTHRSIR registered an amyloid nucleation score of -0.406 ± 0.5.

Regarding GTHPCLQVCDDRGDWLLA, the amyloid nucleation score is 0.868 ± 0.29.

PAKERLFRVETGRFRMKGSW: the amyloid nucleation score amounted to 1.63 ± 0.13.

In the case of TNSTPPVKLYWIMKLLDRFR, the amyloid nucleation score entry was “inactive”.

In the case of WSSTVKSVKSAGAP, the amyloid nucleation score stood at 0.475 ± 0.38.

Consider GYLSGYLRGSNILGHERYRY, for which the amyloid nucleation score is -0.85 ± 0.32.

On to LRRSGRSENSRRMTWVWW, for which the amyloid nucleation score came out at 2.75 ± 0.17.

Consider SRLRRKEYGDWFFYYGWSTN, for which the amyloid nucleation score was found to be 0.237 ± 1.

For the substance WERDTFAVLLVRNFNR, the amyloid nucleation score came to 0.187 ± 0.43.

Substance PYNLVGLGLFSPAGF showed an amyloid nucleation score of -0.849 ± 0.61.

As for LNGSADTLD, the amyloid nucleation score was -0.755 ± 0.41.

Substance YLYPSCCIRYILILNFYTVI displayed an amyloid nucleation score of 0.013 ± 0.16.

VGGIWE came in with an amyloid nucleation score of -0.427 ± 0.45.

HCIMYSTLRHRVWSGRLDGS had an amyloid nucleation score of 3.86 ± 0.089.

IGIAKYLREGRSSPTESL yielded an amyloid nucleation score of -0.5 ± 0.33.

As for KRGSAEFNQLDHYECTRYEC, the amyloid nucleation score entry is “inactive”.

The substance GKFVLFRMMFNLVNYRSVLQ gave an amyloid nucleation score of -0.731 ± 0.25.

The substance SEFLRKVSFFLFYLFSSGHL had an amyloid nucleation score of -0.73 ± 0.61.

As to RMLRKSNGS, the amyloid nucleation score was determined as 0.066 ± 0.3.

WVLVYIICFTQDDS: the amyloid nucleation score was -1.4 ± 1.1.

Take ISVGGLSHMGTVGSLMKVTQ: the amyloid nucleation score was -0.023 ± 0.29.

In turn, LYRAGVAFVCTYFVNSGEF came in with an amyloid nucleation score of 2.61 ± 0.13.

HDIVRIALHYQQRVVCAWSC: the amyloid nucleation score came to 0.713 ± 0.24.

For the substance LLSTDESCSTLNIYCIYTPR, the amyloid nucleation score was 8.139 ± 0.045.

Turning to AVNGQGDS, the amyloid nucleation score was -0.231 ± 0.43.

QSTHMNT registered an amyloid nucleation score of -0.364 ± 0.48.

Turning to IDFLM, the amyloid nucleation score was -0.744 ± 0.39.

In turn, AWLVLWDIAI yielded an amyloid nucleation score of 0.583 ± 0.36.

The substance NSKLPAEFLFFQYECMESPR had an amyloid nucleation score of -0.758 ± 0.79.

SEWSRDRKRVKVSHFA came in with an amyloid nucleation score of 0.465 ± 0.17.

The substance LFMFGFGIL registered an amyloid nucleation score of 0.05 ± 0.42.

As for FKSVSRSVALLRYPCLPKFS, the amyloid nucleation score is -0.47 ± 0.74.

As to FERLNYQLREFYKVIKFSCV, the amyloid nucleation score result is “inactive”.

Substance FLFRKYWLTNRWLFMFKEFA yielded an amyloid nucleation score of 0.196 ± 0.65.

YTMMRFGPPPFETFVVKYGL registered an amyloid nucleation score of 1.42 ± 0.35.

In the case of MAACCHKLWLTCFDTVRMFN, the amyloid nucleation score was -0.478 ± 0.41.

CYGVFLVVSWDHGGDQIGVV: the amyloid nucleation score was -0.482 ± 0.48.

In the case of CLPFYCTFGSVVARAGVYH, the amyloid nucleation score result was “inactive”.

For the substance DLHWA, the amyloid nucleation score amounted to 0.595 ± 0.28.
